T1: full-length human CTLA4 expressed on cells (human, UniProt P16410 36-223)
T1 sequence (looked up): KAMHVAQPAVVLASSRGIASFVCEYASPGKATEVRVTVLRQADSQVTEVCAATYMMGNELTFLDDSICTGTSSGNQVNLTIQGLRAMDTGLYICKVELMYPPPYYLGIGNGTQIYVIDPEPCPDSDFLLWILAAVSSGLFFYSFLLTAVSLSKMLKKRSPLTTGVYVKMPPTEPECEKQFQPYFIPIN

T2: recombinant human CTLA4 protein (construct not stated) (human, UniProt P16410 36-162, limits assumed)
T2 construct: also called biotinylated human CTLA4; human recombinant CTLA4 proteins
T2 sequence (looked up): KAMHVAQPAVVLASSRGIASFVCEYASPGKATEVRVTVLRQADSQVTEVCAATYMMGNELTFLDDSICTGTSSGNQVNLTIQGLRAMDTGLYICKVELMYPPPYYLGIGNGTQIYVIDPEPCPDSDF

T3: monkey CTLA4 (SPR analyte, construct not stated) (monkey, UniProt G7PL88 36-161)
T3 sequence: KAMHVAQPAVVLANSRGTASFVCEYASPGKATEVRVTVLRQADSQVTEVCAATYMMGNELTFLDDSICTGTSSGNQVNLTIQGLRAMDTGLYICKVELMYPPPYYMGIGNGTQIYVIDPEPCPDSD

T4: recombinant human CTLA4 fused with human Fc and His tag (human, UniProt P16410 36-162, limits assumed)
T4 construct: Coated in the CD80 ELISA, biotinylated and in solution in the CD86 ELISA; also called biotinylated human CTLA4 fused with human FC and His tag
T4 sequence (looked up): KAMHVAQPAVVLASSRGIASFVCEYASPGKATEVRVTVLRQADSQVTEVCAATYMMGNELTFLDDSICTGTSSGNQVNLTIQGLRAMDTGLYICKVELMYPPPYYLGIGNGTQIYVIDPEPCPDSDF

T5: recombinant human CTLA4-Fc (human, UniProt P16410 36-162)
T5 construct: also called human CTLA4 fused with human FC fragment; CTLA4-Fc (Sino Biological, 11159-H03H)
T5 sequence (looked up): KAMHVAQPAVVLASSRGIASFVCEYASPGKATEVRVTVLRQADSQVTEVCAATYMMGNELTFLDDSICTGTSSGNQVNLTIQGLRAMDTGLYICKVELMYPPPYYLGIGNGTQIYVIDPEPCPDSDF

T6: canine CTLA4 fused with His tag (canine, UniProt Q9XSI1 36-162, limits assumed)
T6 construct: also called dog CTLA4
T6 sequence (looked up): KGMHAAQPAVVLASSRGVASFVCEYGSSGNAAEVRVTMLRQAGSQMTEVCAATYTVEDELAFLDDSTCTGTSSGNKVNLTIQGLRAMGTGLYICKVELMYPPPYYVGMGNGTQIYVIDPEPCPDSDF

B1: TY21691 (antibody, V domains shown)
VH: EVQLVESGGGLVQPGGSLRLSCAASGFTFSDYAIHWVRQAPGKGLEWIGIISPSGGSTKYAQKFQGRVTISRDNSKNTLYLQLNSLRAEDTAVYYCARLGYGYFDVWGQGTLVTVSS
VL: DIQLTQSPSSLSASVGDRVTITCRASQSVDFYGISFLHWYQQKPGKAPKLLIYDASSLESGVPSRFSGSGSGTDFTLTISSLQPEDFATYYCVQALQLPLTFGQGTKVEIK
notes: human IgG1 (hIgG1) from Fab hit B15736
B2: TY21591 (antibody, V domains shown)
VH: EVQLVESGGGLVQPGGSLRLSCAASGFSLSTGGVAVSWIRQAPGKGLEWIGEIYHSGSTYYSPSLKSRVTISRDNSKNTLYLQLNSLRAEDTAVYYCARRIATATYFDYWGQGTLVTVSS
VL: DIQLTQSPSSLSASVGDRVTITCRASQTVFSRYLAWYQQKPGKAPKLLIYDASNRATGIPSRFSGSGSGTDFTLTISSLQPEDFATYYCQQSYYWPPWTFGQGTKVEIK
notes: human IgG1 (hIgG1) from Fab hit B15756
B3: TY21687 (antibody, V domains shown)
VH: EVQLVESGGGLVQPGGSLRLSCAASGFTFSGYAIHWVRQAPGKGLEWIGIISPSGGGTKYAQKFQGRVTISRDNSKNTLYLQLNSLRAEDTAVYYCARHPFAYWGQGTLVTVSS
VL: DIQLTQSPSSLSASVGDRVTITCRASQSVDFYGISFLDWYQQKPGKAPKLLIYDASNRATGIPSRFSGSGSGTDFTLTISSLQPEDFATYYCQQYVSSPPEYTFGQGTKVEIK
notes: human IgG1 (hIgG1) from Fab hit B15700
B4: TY21585 (antibody, V domains shown)
VH: EVQLVESGGGLVQPGGSLRLSCAASGFTFSDYAIHWVRQAPGKGLEWIGIISPSSGSTNYAQKFQGRVTISRDNSKNTLYLQLNSLRAEDTAVYYCARDIHSGSSGYYYGFDVWGQGTLVTVSS
VL: DIQLTQSPSSLSASVGDRVTITCRASESVDFFGISFLAWYQQKPGKAPKLLIYDASNRATGIPSRFSGSGSGTDFTLTISSLQPEDFATYYCQHYTSSPPVYTFGQGTKVEIK
notes: human IgG1 (hIgG1) from Fab hit B15709

Tests used:
[1] = biological target: T1, full-length human CTLA4 expressed on …; assay: cell-based or functional assay
[2] = biological target: mouse CTLA4 (SPR analyte, construct not stated) (mouse, UniProt P09793 36-162, limits assumed); assay: SPR (Biacore T200), IgG captured by anti-human Fc
Description: (§1) Binding affinity and kinetics of antibodies against human, monkey and mouse CTLA4 were examined (Table 4) by surface plasmon resonance (SPR) analysis using a Biacore™ T200 instrument (Biacore AB, Uppsala, Sweden) according to the manufacturer's guidelines. Anti-Human IgG (Fc) antibody from Human Antibody Capture Kit (GE BR-1008-39) was immobilized on CM5 chips by coupling of its amine groups onto carboxylated surfaces of sensor chips according to the instructions of an Amine Coupling kit (GE Biacore #BR-1000-50). […] The association and dissociation curves were fitted to a 1:1 Langmuir binding model using Biacore T200 Evaluation Software (Biacore AB) according to the manufacturer's guidelines.

[3] = biological target: T2, recombinant human CTLA4 protein …; assay: SPR (Biacore T200), IgG captured by anti-human Fc
Description: as §1

[4] = biological target: T3, monkey CTLA4 (SPR analyte, construct …); assay: SPR (Biacore T200), IgG captured by anti-human Fc
Description: as §1

[5] = biological target: T4, recombinant human CTLA4 fused with …; assay: competition ELISA: plate-bound human CTLA4-Fc-His, biotinylated CD80 as blocked ligand
Protocol: Antibodies were then tested for their ability to block binding of CTLA4 to its cognate ligands CD80 and CD86 by ELISA. […] Plates were blocked with PBS supplemented with 2% (w/v) skim milk at 37° C. for 1 hour. […] Plates were washed four times, and 100 μL HRP-neutravidin (1:1000) was added to each well and incubated at 37° C. for 1 hour. Plates were washed as previously described, and 50 μL TMB substrate solution was added and incubated at room temperature for 5 minutes before the reaction was stopped by 50 μL sulfate acid (2M).

[6] = biological target: T7, human PD1 on HEK293F cells (human, UniProt Q15116 25-288); assay: flow cytometry, transfected HEK293F cells
T7 construct: whole, on cells
T7 sequence (Q15116 25-288): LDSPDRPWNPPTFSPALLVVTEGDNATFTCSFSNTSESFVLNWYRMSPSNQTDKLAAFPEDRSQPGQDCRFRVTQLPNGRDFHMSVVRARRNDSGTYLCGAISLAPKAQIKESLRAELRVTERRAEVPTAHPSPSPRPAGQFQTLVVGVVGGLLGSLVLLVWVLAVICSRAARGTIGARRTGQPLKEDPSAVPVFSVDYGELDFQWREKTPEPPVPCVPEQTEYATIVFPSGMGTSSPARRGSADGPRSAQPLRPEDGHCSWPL
Protocol: Antibody selectivity was next examined. Human CTLA4, PD1, LAG3, Tim3, B7H3, CD95, TNFR1, OX40, CD40, PD-L1, BLTA, VISTA, PDL2, ICOS and B7H4 were transiently overexpressed on the surface of HEK293F cells. Transfected cells were washed in pre-chilled 1×PBSA buffer (1.76 mM KH2PO4, 10.14 mM Na2HPO4.12H2O, 2.68 mM KCl, 136.89 mM NaCl and 1% BSA), then incubated with 100 nM test antibodies for 1 hour on ice. Cells were washed once with staining buffer, and Alexa Fluor® 647 conjugated mouse anti-human FC antibodies were added and incubated for 30 minutes on ice, protected from light. Samples were washed once with staining buffer prior to analysis by flow cytometry.

[7] = biological target: T1, full-length human CTLA4 expressed on …; assay: cell-based or functional assay; remark: listed apart in the source
[8] = biological target: T5, recombinant human CTLA4-Fc; assay: ELISA, coated human CTLA4-Fc
Protocol: (§2) The ability of certain IgG antibodies to bind to soluble human (FIG. 1A, Table 5A) or canine (FIG. 1B, Table 5B) CTLA4 was next tested. 1 μg/mL human CTLA4 fused with human FC fragment, or canine CTLA4 fused with His tag, were prepared and used to coat an ELISA plate at 2-8° C. overnight. After blocking, 100 μL serial diluted IgG antibodies were added and incubated at 37° C. for 1 hour. Plates were washed for four times and then incubated with HRP-anti human IgG (Fab specific) (1:6000 dilution) at 37° C. for 1 hour. Plates were washed again four times and incubated with TMB substrate for 15 minutes at room temperature. […] The data was analyzed by Graphpad Prism 6 with nonlinear fitting.

[9] = biological target: T6, canine CTLA4 fused with His tag; assay: ELISA, coated canine CTLA4-His
Protocol: as §2

Binder | EC50 for ADCC reporter signaling (Jurkat/NFAT-Luc/CD16 with HEK293F/hCTLA4 cells) [1] [µg/mL] | Kd [2] [nM] | Kd [3] [nM] | Kd [4] [nM] | IC50 (read off the curve) [5] [nM] | binding result [6] | EC50 for TCR/CD28 pathway activation (luciferase reporter, CTLA4 blockade bioassay) [7] [µg/mL] | EC50 [8] [nM] | Kd [8] [nM] | LogEC50 [8] | EC50 [9] [nM] | Kd [9] [nM] | LogEC50 [9]
B1 | > 10 | 1.46 | 2.08 | 2.44 | ~20 | no binding (tested: 100 nM) | 2.64 |  |  |  |  |  | 
B2 |  |  | 9.68 | 3.27 | ~10 |  |  | 0.831 | 0.83 | -9.08 | 0.707 | 0.71 | -9.15
B3 | 9.5 | 2.76 | 1.82 | 1.52 | ~20 |  | 5.01 | 0.32 | 0.32 | -9.49 | 0.745 | 0.75 | -9.13
B4 |  | 1.71 | 8.15 | 8.26 | ~10 | no binding (tested: 100 nM) |  | 0.555 | 0.56 | -9.26 | 6.04 | 6.05 | -8.22

Source: patent US20190241662A1 (ADAGENE, published 2019)
